Laboratory results taken from article doi:10.1101/2024.05.06.590709 (bioRxiv, 2024).

Assays:
mass photometry = molecular target: the molecule itself; test: mass photometry
SEC-MALS = molecular target: the molecule itself; test: SEC-MALS

B1: NIT1 WT (purified recombinant AtNIT1) (enzyme)
chain: MSSTKDMSTVQNATPFNGVAPSTTVRVTIVQSSTVYNDTPATIDKAEKYIVEAASKGAELVLFPEGFIGGYPRGFRFGLAVGVHNEEGRDEFRKYHASAIHVPGPEVARLADVARKNHVYLVMGAIEKEGYTLYCTVLFFSPQGQFLGKHRKLMPTSLERCIWGQGDGSTIPVYDTPIGKLGAAICWENRMPLYRTALYAKGIELYCAPTADGSKEWQSSMLHIAIEGGCFVLSACQFCQRKHFPDHPDYLFTDWYDDKEHDSIVSQGGSVIISPLGQVLAGPNFESEGLVTADIDLGDIARAKLYFDSVGHYSRPDVLHLTVNEHPRKSVTFVTKVEKAEDDSNK
modifications: RED-NHS 2nd Generation dye (in the MST only)
- stoichiometry N (mass photometry): ≤ 10
- stoichiometry N (SEC-MALS): 20
